In patent US20180155451A1 (published 2018):

T1: FcγRIIb extracellular domain with C-terminal His tag (human, UniProt P31994 43-217)
T1 construct: extracellular domain; Soluble receptor expressed in FreeStyle293 cells; analyte in Biacore; also called FcgRIIb; 2b; not shown: His tag at the C terminus
T1 sequence (looked up): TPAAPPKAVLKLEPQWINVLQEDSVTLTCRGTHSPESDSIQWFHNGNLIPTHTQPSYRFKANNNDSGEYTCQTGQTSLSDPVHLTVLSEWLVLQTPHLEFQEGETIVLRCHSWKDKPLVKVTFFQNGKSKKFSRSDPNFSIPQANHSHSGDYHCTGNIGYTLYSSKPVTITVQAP

B1: GpH7-A5/GpH7-B3 variant E333_13S/GpL16-k0 (antibody, human IgG1, kappa)
heavy 1: not shown
heavy 2: not shown
light: DIVMTQSPLSLPVTPGEPASISCQASESLVHSNRNTYLHWYLQKPGQSPQLLIYKVSNRFSGVPDRFSGSGSGTDFTLKISRVEAEDVGVYYCSQNTHVPPTFGQGTKVEIERTVAAPSVFIFPPSDEQLKSGTASVVCLLNNFYPREAKVQWKVDNALQSGNSQESVTEQDSKDSTYSLSSTLTLSKADYEKHKVYACEVTHQGLSSPVTKSFNRGEC
notes: He Ab: heterodimerized anti-glypican-3 IgG1, substitution in one H chain only; also called He Ab E333S
B2: GpH7-A5/GpH7-B3 variant A330_16H/GpL16-k0 (antibody, human IgG1, kappa)
heavy 1: not shown
heavy 2: not shown
light: B1 light
notes: He Ab: heterodimerized anti-glypican-3 IgG1, substitution in one H chain only; also called He Ab A330H
B3: GpH7-A5/GpH7-B3 variant A330_03V/GpL16-k0 (antibody, human IgG1, kappa)
heavy 1: not shown
heavy 2: not shown
light: B1 light
notes: He Ab: heterodimerized anti-glypican-3 IgG1, substitution in one H chain only; also called He Ab A330V
B4: GpH7-A5/GpH7-B3 variant A330_20W/GpL16-k0 (antibody, human IgG1, kappa)
heavy 1: not shown
heavy 2: not shown
light: B1 light
notes: He Ab: heterodimerized anti-glypican-3 IgG1, substitution in one H chain only; also called He Ab A330W
B5: GpH7-A5/GpH7-B3 variant A327_20W/GpL16-k0 (antibody, human IgG1, kappa)
heavy 1: not shown
heavy 2: not shown
light: B1 light
notes: He Ab: heterodimerized anti-glypican-3 IgG1, substitution in one H chain only; also called He Ab A327W
B6: GpH7-A5/GpH7-B3 variant A330_14T/GpL16-k0 (antibody, human IgG1, kappa)
heavy 1: not shown
heavy 2: not shown
light: B1 light
notes: He Ab: heterodimerized anti-glypican-3 IgG1, substitution in one H chain only; also called He Ab A330T
B7: GpH7-A5/GpH7-B3 variant E333_12R/GpL16-k0 (antibody, human IgG1, kappa)
heavy 1: not shown
heavy 2: not shown
light: B1 light
notes: He Ab: heterodimerized anti-glypican-3 IgG1, substitution in one H chain only; also called He Ab E333R
B8: GpH7-A5/GpH7-B3 variant E333_11K/GpL16-k0 (antibody, human IgG1, kappa)
heavy 1: not shown
heavy 2: not shown
light: B1 light
notes: He Ab: heterodimerized anti-glypican-3 IgG1, substitution in one H chain only; also called He Ab E333K
B9: GpH7-A5/GpH7-B3 variant E333_16H/GpL16-k0 (antibody, human IgG1, kappa)
heavy 1: not shown
heavy 2: not shown
light: B1 light
notes: He Ab: heterodimerized anti-glypican-3 IgG1, substitution in one H chain only; also called He Ab E333H
B10: GpH7-A5/GpH7-B3 variant E333_18N/GpL16-k0 (antibody, human IgG1, kappa)
heavy 1: not shown
heavy 2: not shown
light: B1 light
notes: He Ab: heterodimerized anti-glypican-3 IgG1, substitution in one H chain only; also called He Ab E333N
B11: GpH7-A5/GpH7-B3 variant A330_09D/GpL16-k0 (antibody, human IgG1, kappa)
heavy 1: not shown
heavy 2: not shown
light: B1 light
notes: He Ab: heterodimerized anti-glypican-3 IgG1, substitution in one H chain only; also called He Ab A330D
B12: GpH7-A5/GpH7-B3 variant E333_02A/GpL16-k0 (antibody, human IgG1, kappa)
heavy 1: not shown
heavy 2: not shown
light: B1 light
notes: He Ab: heterodimerized anti-glypican-3 IgG1, substitution in one H chain only; also called He Ab E333A
B13: GpH7-A5/GpH7-B3 variant A330_18N/GpL16-k0 (antibody, human IgG1, kappa)
heavy 1: not shown
heavy 2: not shown
light: B1 light
notes: He Ab: heterodimerized anti-glypican-3 IgG1, substitution in one H chain only; also called He Ab A330N
B14: GpH7-A5/GpH7-B3 variant E333_01G/GpL16-k0 (antibody, human IgG1, kappa)
heavy 1: not shown
heavy 2: not shown
light: B1 light
notes: He Ab: heterodimerized anti-glypican-3 IgG1, substitution in one H chain only; also called He Ab E333G

target: T2, FcγRIa extracellular domain with C-terminal His tag (human, UniProt P12314 16-292); test: SPR (Biacore), antibody captured on antigen peptide chip, FcγR as analyte; binding relative to GpH7-A5/GpH7-B3/GpL16-k0 = 100
T2 construct: extracellular domain; Soluble receptor expressed in FreeStyle293 cells; analyte in Biacore; also called FcgRI; FcgRIa; not shown: His tag at the C terminus
Method: (§1) The heterodimerized antibodies He Abs in which one of the H chains was introduced with an alteration were assayed for their binding activities to each activating FcγR and inhibitory FcγR according to the method described in Example 4. […] The activating FcγRs in FIGS. 26, 27, 28, and 29 are FcγRIa, FcγRIIa (R), FcγRIIa (H), and FcγRIIIa, respectively.
(§2) Analysis of interaction between objective antibody and the FcγR was carried out using Biacore T100 (GE Healthcare). HBS-EP+ (GE Healthcare) was used as the running buffer, and the measurement temperature was set to 25° C. Chips produced by immobilizing the antigen peptide by the amine coupling method to a Series S Sencor Chip CM5 (GE Healthcare), or alternatively, chips produced by allowing preliminarily biotinylated antigen peptides to interact with and immobilize onto a Series S Sensor Chip SA (certified) (GE Healthcare) were used. Antibodies of interest were captured onto an antigen peptide-immobilized chip, and allowed to interact to each FcγR diluted with running buffer. To regenerate and repeatedly use the chip, the antibodies captured on the chip were washed off by reacting 10 mM glycine-HCl, pH 1.5.

T2 sequence (P12314 16-292): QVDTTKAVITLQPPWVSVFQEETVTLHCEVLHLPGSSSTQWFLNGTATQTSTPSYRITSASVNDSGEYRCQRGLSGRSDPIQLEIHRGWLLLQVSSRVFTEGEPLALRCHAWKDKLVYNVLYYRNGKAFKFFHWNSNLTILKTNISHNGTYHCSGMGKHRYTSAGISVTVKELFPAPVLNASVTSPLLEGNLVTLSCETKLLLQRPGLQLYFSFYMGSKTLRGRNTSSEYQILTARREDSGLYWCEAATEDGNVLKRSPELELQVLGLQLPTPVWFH

Binder	He/Con_1a (Ia binding)
B1	103 % of control (control = 100)
B2	106 % of control (control = 100)
B3	106 % of control (control = 100)
B4	108 % of control (control = 100)
B5	97.7 % of control (control = 100)
B6	105 % of control (control = 100)
B7	102 % of control (control = 100)
B8	102 % of control (control = 100)
B9	101 % of control (control = 100)
B10	96.6 % of control (control = 100)
B11	109 % of control (control = 100)
B12	103 % of control (control = 100)
B13	106 % of control (control = 100)
B14	103 % of control (control = 100)

target: T1, FcγRIIb extracellular domain with …; test: as above
Method: as §1, §2

Binder	He/Con_2b (IIb binding)
B1	81.8 % of control (control = 100)
B2	87.6 % of control (control = 100)
B3	52.4 % of control (control = 100)
B4	76.1 % of control (control = 100)
B5	78.8 % of control (control = 100)
B6	77.9 % of control (control = 100)
B7	80.4 % of control (control = 100)
B8	80.6 % of control (control = 100)
B9	83.3 % of control (control = 100)
B10	76.1 % of control (control = 100)
B11	55.6 % of control (control = 100)
B12	83.8 % of control (control = 100)
B13	63.7 % of control (control = 100)
B14	81.4 % of control (control = 100)

target: T2, FcγRIa extracellular domain with …; test: SPR (Biacore); He/Con_1a divided by He/Con_2b (FcγRIIb)
Method: as §1, §2

Binder	He_1a/2b (Ia/IIb)
B1	1.26
B2	1.21
B3	2.01
B4	1.41
B5	1.24
B6	1.35
B7	1.27
B8	1.27
B9	1.21
B10	1.27
B11	1.95
B12	1.23
B13	1.67
B14	1.26
